Test results taken from the supplement of paper PMC7877785.
± gives the uncertainty stated by the source.

Assay: self-splicing fitness, log relative to wild type (ln ratio); higher = more splicing; Tetrahymena group I intron in knt gene, E. coli kanamycin selection, DiMSum; sequences stand for … in CUCUCU…GGAGGGAAAAGUUAUCAGGCAUGCACCUGGUAGCUAGUCUUUAAACCAAUAGAUUGCAUCGGUUUAAAAGGCAAGACCGUCAAAUUGCGGGAAAGGGGUCAACAGCCGUUCAGUACCAAGUCUCAGGGGAAACUUUGAGAUGGCCUUGCAAAGGGUAUGGUAAUAAGCUGACGGACAUGGUCCUAACCACGCAGCCAAGUCCUAAGUCAACAGAUCUUCUGUUGAUAUGGAUGCAGUUCACAGACUAAAUGUCGGUCGGGGAAGAUGUAUUCUUCUCAUAAGAUAUAGUCGGACCUCUCCUUAAUGGGAGCUAGCGGAUGAAGUGAUGCAACACUGGAGCCGCUGGGAACUAAUUUGUAUGCGAAAGUAUAUUGAUUAGUUUUGGAGUACUCGUGGUCG
Procedure, shortened: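 Colonies from six replicate transformations of E. coli BL21(DE3) were pooled and amplicon-sequenced on an Illumina HiSeq 2500. The library placed an intron with all eight P1ex-region nucleotides randomised inside the knt kanamycin-resistance gene on pET-22b(+), and cells grew overnight at 37°C or 30°C on LB agar with or without 25 μg/mL kanamycin (plus 100 μg/mL carbenicillin, 50 μM IPTG, 0.2% rhamnose). Fitness is the DiMSum error-weighted combination of wild-type-normalised replicate fold changes, kanamycin versus none.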

In the case of GGUGAGCAAUAUUACGCUCG, the “self-splicing fitness (ln)” value (37 °C) is reported as -1.37 ± 0.4.
In the case of GAAUAGCAAUAUUACGCCAU, the “self-splicing fitness (ln)” value (37 °C) is reported as -1.49 ± 0.36.
With CGUUAGCAAUAUUACGACUG the “self-splicing fitness (ln)” value (30 °C) was -0.369 ± 0.12 and the “self-splicing fitness (ln)” value (37 °C) was 0.327 ± 0.14.
For CUGUAGCAAUAUUACGGGAU, the “self-splicing fitness (ln)” value (30 °C) was -3.16 ± 0.26 and the “self-splicing fitness (ln)” value (37 °C) was -2.28 ± 0.23.
For CGCAAGCAAUAUUACGGUGC, the “self-splicing fitness (ln)” value (30 °C) was -4.9 ± 0.29 and the “self-splicing fitness (ln)” value (37 °C) was -2.53 ± 0.23.
With AUCAAGCAAUAUUACGAGUA the “self-splicing fitness (ln)” value (30 °C) was -1.56 ± 0.11 and the “self-splicing fitness (ln)” value (37 °C) was -0.436 ± 0.1.
In the case of UGCUAGCAAUAUUACGGAUC, the “self-splicing fitness (ln)” value (37 °C) is reported as -0.421 ± 0.19.
For CAAGAGCAAUAUUACGAACA, the “self-splicing fitness (ln)” value (37 °C) was -2.49 ± 0.33.
With UCAUAGCAAUAUUACGGUGA the “self-splicing fitness (ln)” value (30 °C) was -2.39 ± 0.13 and the “self-splicing fitness (ln)” value (37 °C) was -2 ± 0.12.
With GGGUAGCAAUAUUACGUGCC the “self-splicing fitness (ln)” value (30 °C) was -0.954 ± 0.48.
In the case of GGUCAGCAAUAUUACGAGAA, the “self-splicing fitness (ln)” value (30 °C) is reported as -1.23 ± 0.47 and the “self-splicing fitness (ln)” value (37 °C) is reported as -2.01 ± 0.38.
In the case of AGGAAGCAAUAUUACGACCG, the “self-splicing fitness (ln)” value (30 °C) is reported as -0.0847 ± 0.2 and the “self-splicing fitness (ln)” value (37 °C) is reported as 0.135 ± 0.23.
For UGCAAGCAAUAUUACGUGUU, the “self-splicing fitness (ln)” value (30 °C) was -2.22 ± 0.072 and the “self-splicing fitness (ln)” value (37 °C) was -1.52 ± 0.098.
With CAUGAGCAAUAUUACGCGAG the “self-splicing fitness (ln)” value (30 °C) was -2.19 ± 0.14 and the “self-splicing fitness (ln)” value (37 °C) was -1.47 ± 0.18.
For GCGCAGCAAUAUUACGCGAC, the “self-splicing fitness (ln)” value (30 °C) was -1.77 ± 0.12 and the “self-splicing fitness (ln)” value (37 °C) was -1.79 ± 0.18.
With AUGAAGCAAUAUUACGCAAU the “self-splicing fitness (ln)” value (30 °C) was -1.03 ± 0.11 and the “self-splicing fitness (ln)” value (37 °C) was -0.743 ± 0.12.
With CAUAAGCAAUAUUACGCAUA the “self-splicing fitness (ln)” value (30 °C) was -2.48 ± 0.18 and the “self-splicing fitness (ln)” value (37 °C) was -1.71 ± 0.24.
With UUCAAGCAAUAUUACGGGGA the “self-splicing fitness (ln)” value (30 °C) was -1.49 ± 0.1 and the “self-splicing fitness (ln)” value (37 °C) was -0.885 ± 0.1.
With ACCGAGCAAUAUUACGUUCC the “self-splicing fitness (ln)” value (30 °C) was -2.7 ± 0.26 and the “self-splicing fitness (ln)” value (37 °C) was -1.66 ± 0.23.
With UACAAGCAAUAUUACGCCUG the “self-splicing fitness (ln)” value (30 °C) was -0.585 ± 0.081 and the “self-splicing fitness (ln)” value (37 °C) was 0.17 ± 0.11.
In the case of CCAUAGCAAUAUUACGGAGG, the “self-splicing fitness (ln)” value (30 °C) is reported as -3.57 ± 0.21 and the “self-splicing fitness (ln)” value (37 °C) is reported as -0.997 ± 0.15.
For CAGGAGCAAUAUUACGUUCU, the “self-splicing fitness (ln)” value (30 °C) was -4.15 ± 0.2 and the “self-splicing fitness (ln)” value (37 °C) was -2.05 ± 0.14.
With UGUCAGCAAUAUUACGAGGU the “self-splicing fitness (ln)” value (30 °C) was -2.83 ± 0.33 and the “self-splicing fitness (ln)” value (37 °C) was -2.81 ± 0.41.
In the case of GAACAGCAAUAUUACGGCAC, the “self-splicing fitness (ln)” value (30 °C) is reported as -0.296 ± 0.083 and the “self-splicing fitness (ln)” value (37 °C) is reported as -0.0202 ± 0.1.
For ACUAAGCAAUAUUACGACUG, the “self-splicing fitness (ln)” value (30 °C) was -0.95 ± 0.065 and the “self-splicing fitness (ln)” value (37 °C) was -0.652 ± 0.089.
With GGGUAGCAAUAUUACGACCG the “self-splicing fitness (ln)” value (30 °C) was -1.03 ± 0.18 and the “self-splicing fitness (ln)” value (37 °C) was -0.642 ± 0.33.
With UAUAAGCAAUAUUACGGUUG the “self-splicing fitness (ln)” value (30 °C) was -1.61 ± 0.11 and the “self-splicing fitness (ln)” value (37 °C) was -0.603 ± 0.13.
In the case of GGAUAGCAAUAUUACGACUA, the “self-splicing fitness (ln)” value (30 °C) is reported as -1.37 ± 0.42 and the “self-splicing fitness (ln)” value (37 °C) is reported as -1.11 ± 0.28.
In the case of CUGUAGCAAUAUUACGGUAU, the “self-splicing fitness (ln)” value (30 °C) is reported as -2.41 ± 0.15 and the “self-splicing fitness (ln)” value (37 °C) is reported as -2.08 ± 0.18.
For GCAAAGCAAUAUUACGACGU, the “self-splicing fitness (ln)” value (30 °C) was 0.0721 ± 0.072 and the “self-splicing fitness (ln)” value (37 °C) was 0.116 ± 0.096.
With AAUGAGCAAUAUUACGGAGU the “self-splicing fitness (ln)” value (37 °C) was -0.994 ± 0.44.
In the case of CAACAGCAAUAUUACGAUCC, the “self-splicing fitness (ln)” value (30 °C) is reported as -2.87 ± 0.2 and the “self-splicing fitness (ln)” value (37 °C) is reported as -1.4 ± 0.16.
In the case of GUUAAGCAAUAUUACGCGCU, the “self-splicing fitness (ln)” value (30 °C) is reported as -2 ± 0.16 and the “self-splicing fitness (ln)” value (37 °C) is reported as -1.63 ± 0.2.
In the case of CGUCAGCAAUAUUACGGACU, the “self-splicing fitness (ln)” value (30 °C) is reported as -0.14 ± 0.09 and the “self-splicing fitness (ln)” value (37 °C) is reported as 0.0847 ± 0.089.
In the case of GCCCAGCAAUAUUACGUUCA, the “self-splicing fitness (ln)” value (30 °C) is reported as -2.45 ± 0.16 and the “self-splicing fitness (ln)” value (37 °C) is reported as -0.504 ± 0.11.
In the case of CAUAAGCAAUAUUACGGGCG, the “self-splicing fitness (ln)” value (30 °C) is reported as -0.054 ± 0.08 and the “self-splicing fitness (ln)” value (37 °C) is reported as 0.166 ± 0.092.
With AUGUAGCAAUAUUACGCACA the “self-splicing fitness (ln)” value (30 °C) was -0.084 ± 0.13 and the “self-splicing fitness (ln)” value (37 °C) was 0.428 ± 0.17.
For ACCUAGCAAUAUUACGCUUA, the “self-splicing fitness (ln)” value (30 °C) was -1.73 ± 0.11 and the “self-splicing fitness (ln)” value (37 °C) was -0.883 ± 0.1.
With GAGGAGCAAUAUUACGUAGG the “self-splicing fitness (ln)” value (30 °C) was -2.42 ± 0.42 and the “self-splicing fitness (ln)” value (37 °C) was -1.27 ± 0.23.
In the case of CUGCAGCAAUAUUACGACUA, the “self-splicing fitness (ln)” value (30 °C) is reported as -1.58 ± 0.13 and the “self-splicing fitness (ln)” value (37 °C) is reported as -1.09 ± 0.12.
For AAGCAGCAAUAUUACGGAAA, the “self-splicing fitness (ln)” value (30 °C) was -2.74 ± 0.12 and the “self-splicing fitness (ln)” value (37 °C) was -2.26 ± 0.14.
With AAAAAGCAAUAUUACGUCUU the “self-splicing fitness (ln)” value (30 °C) was -0.301 ± 0.043 and the “self-splicing fitness (ln)” value (37 °C) was 0.361 ± 0.063.
In the case of CAUUAGCAAUAUUACGCUAA, the “self-splicing fitness (ln)” value (30 °C) is reported as -2.7 ± 0.32.
For GUAAAGCAAUAUUACGUUGG, the “self-splicing fitness (ln)” value (30 °C) was -1.84 ± 0.12 and the “self-splicing fitness (ln)” value (37 °C) was -1.56 ± 0.13.
